This is an account of results in article PMC3758141, “Structural analysis of DNA–protein complexes regulating the restriction–modification system Esp1396I” (Acta Crystallographica Section F: Structural Biology and …, 2013).

Data set [1] deals with the molecule itself. The data set is described as follows: crystal structure; co-crystal of C.Esp1396I with the 19 bp OR DNA duplex (19OR), protein:DNA 1:1, 0.1 M PCB buffer pH 5.0, 25% PEG 3350, 10 mM spermidine, microseeding; 3.0 Å, space group C2.
Data set [2] has as its target T1, C.Esp1396I controller protein (plasmid pEsp1396I (type II RM system …, UniProt Q8GGH0 1-79)).
T1 sequence: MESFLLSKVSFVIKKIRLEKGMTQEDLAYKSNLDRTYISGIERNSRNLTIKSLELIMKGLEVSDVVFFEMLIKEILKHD
The data set is described as follows: X-ray crystallography; dimer bound at OL via HTH, OR half unbound; 10 mM spermidine, protein:DNA 2:1; Crystallization by vapour diffusion: 19OR 0.1 M PCB buffer pH 5.0, 25% PEG 3350, 10 mM spermidine (microseeded); 25OL 0.1 M PCB pH 4.0, 20% PEG 1500, 10 mM spermidine; temperature not stated. The settings on record: protein: recombinant; tags: N-terminal His6 removed with thrombin; chain copies: 2; (called 25 bp, but printed strand has 24 nt).

B1: controller protein C.Esp1396I (natural protein)
chain: T1 sequence
notes: controller protein (C-protein) of the plasmid-borne type II restriction-modification system Esp1396I; 'native C.Esp1396I'; Homodimer; The His tag was removed with thrombin before crystallisation; In both crystals the dimer stands together with a DNA duplex (19 bp OR or 25 bp OL plus half of OR); also called C-protein; not shown: His6, N-terminal, cleaved
B1: the binding result in data set [1] is “binds”.

B2: 25OL (dsDNA)
DNA 1: ATGTGACTTATAGTCGTGTGATTA
DNA 2: TAATCACACGACTATAAGTCACAT
Take B2: the binding result in data set [2] is on record as “binds”.
